Conditions: Hordeum vulgare; pH 6.25; 25 °C; GdnHCl; Fluorescence; MES 50 mM; reversible: yes; whole UniProt chain shown

B1: Subtilisin-chymotrypsin inhibitor-2A wild type, P01053 (protein)
chain: MSSVEKKPEGVNTGAGDRHNLKTEWPELVGKSVEEAKKVILQDKPEAQIIVLPVGTIVTMEYRIDRVRLFVDKLDNIAQVPRVG
**Q.** What does the source list for B1?
**A.** denaturant m value: 1.9 kcal/mol/M; denaturant midpoint (higher = more stable): 4 M; unfolding free energy: 31.8 kJ/mol
